{"source": "patent US20230416410A1", "about": "(ZOETIS SERVICES, published 2023)", "binders": {"B1": {"name": "CTLA4 Fc bIgG1b (Fc fusion)", "chain": "DMHVAQPAVVLASSRGVASFVCEYGSSGNAAEVRVTVLRQAGSQMTEVCAATYTVEDELAFLDDSTCTGTSSGNKVNLTIQGLRAMDTGLYICKVELMYPPPYYVGMGNGTQIYVIDPEPCPDSDDPTCKPSPCDCCPPPELPGGPSVFIFPPKPKDTLTISGTPEVTCVVVDVGHDDPEVKFSWFVDDVEVNTATTKPREEQFNSTYRVVSALRIQHQDWTGGKEFKCKVHNEGLPAPIVRTISRTKGPAREPQVYVLAPPQEELSKSTVSLTCMVTSFYPDYIAVEWQRNGQPESEDKYGTTPPQLDADSSYFLYSKLRVDRNSWQEGDTYTCVVMHEALHNHYTQKSTSKSAGK", "notes": "No linker; also called bIgG1b wildtype; CTLA4 Fc bIgG1b wildtype"}, "B2": {"name": "CTLA4 Fc bIgG1bSAP (Fc fusion)", "chain": "B1 chain with P237S", "notes": "No linker"}, "B3": {"name": "CTLA4 Fc bIgG1bSAS (Fc fusion)", "chain": "B1 chain with P237S, P239S", "notes": "No linker"}, "B4": {"name": "CTLA4 Fc bIgG1bWin (Fc fusion)", "chain": "B1 chain with L142A, P143A, G145A", "notes": "No linker"}, "B5": {"name": "CTLA4 Fc bIgG1bWinSAS (Fc fusion)", "chain": "B1 chain with L142A, P143A, G145A, P237S, P239S", "notes": "No linker"}, "B6": {"name": "CTLA4 Fc bIgG1bWinSS (Fc fusion)", "chain": "B1 chain with L142A, P143A, G145A, A238S, P239S", "notes": "No linker"}, "B7": {"name": "CTLA4 Fc bIgG3bSAP (Fc fusion)", "chain": "DMHVAQPAVVLASSRGVASFVCEYGSSGNAAEVRVTVLRQAGSQMTEVCAATYTVEDELAFLDDSTCTGTSSGNKVNLTIQGLRAMDTGLYICKVELMYPPPYYVGMGNGTQIYVIDPEPCPDSDTARRPVPTTPKTTIPPGKPTTQESEVEKTPCQCSKCPEPLGGLSVFIFPPKPKDTLTISGTPEVTCVVVDVGQDDPEVQFSWFVDDVEVHTARTKPREEQFNSTYRVVSALRIQHQDWLQGKEFKCKVNNKGLSAPIVRTISRTKGQAREPQVYVLAPPREELSKSTLSLTCLITGFYPEEIDVEWQRNGQPESEDKYHTTAPQLDADGSYFLYSRLRVNKSSWQEGDHYTCAVMHEALRNHYKEKSISRSPGK", "notes": "No linker"}, "B8": {"name": "CTLA4 Fc bIgG3b (Fc fusion)", "chain": "B7 chain with S259P", "notes": "No linker; also called bIgG3b wildtype; CTLA4 Fc bIgG3b wildtype"}, "B9": {"name": "CTLA4 Fc bIgG3bSAS (Fc fusion)", "chain": "B7 chain with P261S", "notes": "No linker"}, "B10": {"name": "CTLA4 Fc bIgG3bWin (Fc fusion)", "chain": "B7 chain with P164A, L165A, G167A, S259P", "notes": "No linker"}, "B11": {"name": "CTLA4 Fc bIgG3bWinSAS (Fc fusion)", "chain": "B7 chain with P164A, L165A, G167A, P261S", "notes": "No linker"}, "B12": {"name": "recombinant bovine Fcg2R (receptor)", "chain": "GTFPKPIIWAEPSSVVPLGSSVTILCQGPPNTKSFSLNKEGDSTPWNIHPSLEPWDKANFFISNVREQQAGRYHCSHFIGVNWSEPSEPLDLLVAGEEPAGRLRDRPSLSVRPSPSVAPGENVTLLCQSGNRTDTFLLSKEGAAHRPLRLRSQDQDGWYQAEFSLSPVTSAHGGTYRCYRSLSTNPYLLSQPSEPLALLVADYTMQNLIRMGLAASVLLLLGILLCQARHDHGGAREAARS", "modifications": "biotin on the BAP tag (BirA)"}}, "key": {"[1]": {"biological_target": "T1, complement component C1q (in bovine complement preserved serum) (bovine, UniProt Q5E9E3 23-244; Q2KIV9 23-247)", "T1 sequence (Q5E9E3 23-244, chain 1 of 2)": "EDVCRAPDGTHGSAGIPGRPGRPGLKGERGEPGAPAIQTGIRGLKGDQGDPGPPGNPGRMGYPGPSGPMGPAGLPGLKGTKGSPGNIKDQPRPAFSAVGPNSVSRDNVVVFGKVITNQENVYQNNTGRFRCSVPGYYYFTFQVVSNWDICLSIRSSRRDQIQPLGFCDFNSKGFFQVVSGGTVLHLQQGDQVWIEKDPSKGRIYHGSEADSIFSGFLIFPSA", "T1 sequence (Q2KIV9 23-247, chain 2 of 2)": "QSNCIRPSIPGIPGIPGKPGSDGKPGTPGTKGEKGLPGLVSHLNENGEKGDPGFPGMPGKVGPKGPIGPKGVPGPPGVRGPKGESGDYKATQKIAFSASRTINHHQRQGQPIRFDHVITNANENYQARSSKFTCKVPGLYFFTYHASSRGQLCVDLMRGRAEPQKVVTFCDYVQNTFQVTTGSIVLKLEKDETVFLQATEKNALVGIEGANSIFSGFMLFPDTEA", "test": "cell-based or functional assay"}, "[2]": {"biological_target": "T2, recombinant bovine FcgR1 (bovine, biotin on the BAP tag (BirA))", "T2 construct": "also called bFcgR1; bFcgRI", "test": "SPR Biacore, biotinylated receptor on SA sensor, pH 7.4, 15 C", "description": "(§1) A Biacore SPR binding assay was designed to test the affinity of bovine IgG subclasses to bFcgR1, bFcgR2 and bFcgR3. All reported KD's were measured by Biacore (Cytiva, Marlborough, MA, USA) using series S SA sensor. Biotinylated-bovine FcgR1, R2 and R3 were captured on the sensor surface using a modified SA capture method to reach the desired surface density. 10 mM HEPES, 150 mM NaCl, 3 mM EDTA, 0.05% v/v surfactant P20, pH7.4 buffer was used as the running and titration buffer. Various concentrations of bovine CTLA4-Fc fusions or mAbs were titrated and flowed over the receptor surface and affinities were determined using Biacore T200 Evaluation software (Cytiva, Marlborough, MA, USA) with 1:1 binding model. The method of double referencing has been applied where the reference flow cell was subtracted from the flow cell containing immobilized receptors and blank runs containing buffer only were subtracted out from all runs. Flow cells were regenerated using 10 mM Glycine pH1.5. Runs were performed at 15° C.\n(§2) The ability to knock out binding to bovine Fc gamma receptors was evaluated by comparing SPR Biacore bFcgR affinity of bIgG1a and bIgG1b wildtype Fc to the bIgG1a and bIgG1b mutations, described above. All mutations made to bIgG1 are identical for the a and b allotypes. Biacore methods for bFcgR1, R2, and R3 were performed as described in Example 1."}, "[3]": {"biological_target": "T3, recombinant bovine FcgR3 (bovine, UniProt P79107 17-208, limits assumed, biotin on the BAP tag (BirA))", "T3 construct": "also called bFcgR3; bFcgRIII", "T3 sequence": "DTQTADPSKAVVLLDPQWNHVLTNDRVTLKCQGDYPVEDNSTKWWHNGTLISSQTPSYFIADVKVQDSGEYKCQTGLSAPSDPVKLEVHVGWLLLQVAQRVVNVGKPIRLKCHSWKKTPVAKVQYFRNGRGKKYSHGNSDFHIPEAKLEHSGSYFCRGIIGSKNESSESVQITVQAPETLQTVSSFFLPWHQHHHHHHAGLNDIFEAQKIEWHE", "test": "SPR Biacore, biotinylated receptor on SA sensor, pH 7.4, 15 C", "description": "as §1, §2"}, "[4]": {"biological_target": "T4, recombinant bovine FcgR2 (bovine, UniProt Q28110 43-225, limits assumed, biotin on the BAP tag (BirA))", "T4 construct": "also called bFcgR2; bFcgRII", "T4 sequence": "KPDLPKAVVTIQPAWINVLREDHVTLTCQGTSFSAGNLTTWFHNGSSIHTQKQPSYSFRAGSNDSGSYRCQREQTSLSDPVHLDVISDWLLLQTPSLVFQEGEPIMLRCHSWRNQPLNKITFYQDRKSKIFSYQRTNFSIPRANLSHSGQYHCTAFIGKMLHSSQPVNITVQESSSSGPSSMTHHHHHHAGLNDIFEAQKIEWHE", "test": "SPR Biacore, biotinylated receptor on SA sensor, pH 7.4, 15 C", "description": "as §1, §2"}, "[5]": {"biological_target": "T4, recombinant bovine FcgR2", "test": "SPR Biacore, biotinylated receptor on SA sensor, pH 7.4, 15 C", "description": "as §1\n(§3) Biacore methods for bFcgR1, R2, and R3 were performed as described in Examples above. […] Although the two allotypes have different KDs for bFcgR2 and bFcgR3, both wildtype allotypes do bind. All of the mutations, bIgG3Win, bIgG3WinSAS, bIgG3SAS and bIgG3SAP for both the a and b allotypes knocked down binding to bFcgR1, bFcgR2 and bFcgR3 to negligible affinities. Thus, for knocking out receptor binding, the two allotypes compare similarly.", "remark": "listed apart in the source"}, "[6]": {"biological_target": "T1, complement component C1q (in bovine …)", "test": "cell-based or functional assay", "remark": "listed apart in the source"}, "[7]": {"biological_target": "T2, recombinant bovine FcgR1", "test": "SPR Biacore, biotinylated receptor on SA sensor, pH 7.4, 15 C", "description": "as §1, §3", "remark": "listed apart in the source"}, "[8]": {"biological_target": "T3, recombinant bovine FcgR3", "test": "SPR Biacore, biotinylated receptor on SA sensor, pH 7.4, 15 C", "description": "as §1, §3", "remark": "listed apart in the source"}, "[9]": {"biological_target": "T5, CTLA4bG2b (canine; bovine, UniProt Q9XSI1 36-161, limits assumed)", "T5 construct": "No linker; also called bIgG2b wildtype (CTLA4 fusion); CTLA4 Fc bIgG2b wildtype", "T5 sequence": "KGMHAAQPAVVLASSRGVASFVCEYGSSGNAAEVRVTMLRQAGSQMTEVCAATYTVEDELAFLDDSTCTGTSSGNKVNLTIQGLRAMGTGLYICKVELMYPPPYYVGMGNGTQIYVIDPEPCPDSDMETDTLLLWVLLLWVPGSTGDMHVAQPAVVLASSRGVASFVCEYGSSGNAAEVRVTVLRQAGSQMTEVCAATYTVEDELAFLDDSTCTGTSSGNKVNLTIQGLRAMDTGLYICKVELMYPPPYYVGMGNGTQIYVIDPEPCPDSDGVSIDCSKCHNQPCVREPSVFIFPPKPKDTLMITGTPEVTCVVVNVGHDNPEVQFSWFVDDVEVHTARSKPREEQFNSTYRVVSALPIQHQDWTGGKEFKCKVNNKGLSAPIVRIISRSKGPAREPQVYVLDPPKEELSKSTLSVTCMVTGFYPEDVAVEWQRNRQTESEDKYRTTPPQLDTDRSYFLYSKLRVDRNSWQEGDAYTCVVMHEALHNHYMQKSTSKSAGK", "test": "SPR Biacore, bFcg2R amine-coupled on CM5, pH 7.4, 15 C"}, "[10]": {"biological_target": "T6, CTLA4bG2a (canine; bovine, UniProt Q9XSI1 36-161, limits assumed)", "T6 construct": "No linker; also called bIgG2a wildtype (CTLA4 fusion); CTLA4 Fc bIgG2a wildtype", "test": "SPR Biacore, bFcg2R amine-coupled on CM5, pH 7.4, 15 C"}}, "note": "Numbering of substitutions follows the chain as printed. Read-outs that look alike come from different tables or passages of the source.", "data": [{"binder": "B1", "values": [{"measurement": "CDC EC50 Value", "setting": "[1]", "value": 0.036, "unit": "µg/mL"}, {"measurement": "Kd", "setting": "[2]", "value": 0.463, "unit": "nM"}, {"measurement": "Kd", "setting": "[3]", "value": 13.7, "unit": "nM"}, {"measurement": "Kd", "setting": "[4]", "value": 2.48, "unit": "nM"}]}, {"binder": "B2", "values": [{"measurement": "binding result", "setting": "[4]", "value": "no binding"}]}, {"binder": "B3", "values": [{"measurement": "binding result", "setting": "[4]", "value": "no binding"}]}, {"binder": "B4", "values": [{"measurement": "CDC EC50 Value", "setting": "[1]", "value": 0.015, "unit": "µg/mL"}, {"measurement": "Kd", "setting": "[2]", "value": 3.73, "unit": "nM"}, {"measurement": "Kd", "setting": "[4]", "value": 3.24, "unit": "nM"}]}, {"binder": "B5", "values": [{"measurement": "binding result", "setting": "[4]", "value": "no binding"}]}, {"binder": "B6", "values": [{"measurement": "Kd", "setting": "[2]", "value": 70.4, "unit": "nM"}]}, {"binder": "B7", "values": [{"measurement": "binding result", "setting": "[5]", "value": "no binding"}]}, {"binder": "B8", "values": [{"measurement": "CDC EC50 Value", "setting": "[6]", "value": 0.028, "unit": "µg/mL"}, {"measurement": "Kd", "setting": "[7]", "value": 12.5, "unit": "nM"}, {"measurement": "Kd", "setting": "[8]", "value": 49.6, "unit": "nM"}, {"measurement": "Kd", "setting": "[5]", "value": 706, "unit": "nM"}]}, {"binder": "B9", "values": [{"measurement": "binding result", "setting": "[5]", "value": "no binding"}]}, {"binder": "B10", "values": [{"measurement": "CDC EC50 Value", "setting": "[6]", "value": 0.062, "unit": "µg/mL"}, {"measurement": "binding result", "setting": "[5]", "value": "no binding"}]}, {"binder": "B11", "values": [{"measurement": "binding result", "setting": "[5]", "value": "no binding"}]}, {"binder": "B12", "values": [{"measurement": "Kd", "setting": "[9]", "value": 31.4, "unit": "nM"}, {"measurement": "Kd", "setting": "[10]", "value": 41.7, "unit": "nM"}]}]}
